The values below are quoted from earlier work in paper PMC8369179.

The target of this series is RAGE 23-121 (Homo sapiens) (UniProt Q15109).
Sequence of UniProt Q15109 (Q15109 23-121): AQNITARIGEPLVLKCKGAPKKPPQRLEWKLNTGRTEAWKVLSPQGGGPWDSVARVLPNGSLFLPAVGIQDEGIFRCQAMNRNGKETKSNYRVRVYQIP

One may read the Kd as the constant that tells how readily two partners part at equilibrium. With HMGB1 1-215 (from UniProt P09429), the Kd was 48.3 nM.
